Laboratory results as given in article PMC11480844.

B1: H2-Kb / B6 (parent)
chain 1: GDSVTQTEGLVTVTEGLPVKLNCTYQTTYLTIAFFWYVQYLNEAPQVLLKSSTDNKRTEHQGFHATLHKSSSSFHLQKSSAQLSDSALYYCALSLGNAGAKLTFGGGTRLTVRP
chain 2: EAAVTQSPRNKVTVTGGNVTLSCRQTNSHNYMYWYRQDTGHGLRLIHYSYGAGNLQIGDVPDGYKATRTTQEDFFLLLELASPSQTSLYFCASSDGMISSSYEQYFGPGTRLTVL
chain 3: not shown
chain 4: IQKTPQIQVYSRHPPENGKPNILNCYVTQFHPPHIEIQMLKNGKKIPKVEMSDMSFSKDWSFYILAHTEFTPTETDTYACRVKHDSMAEPKTVYWDRDM
chain 5: SIINFEKL
B2: H2-Kb / F5 (parent)
chain 1: GDSVTQTEGLVTLTEGLPVMLNCTYQSTYSPFLFWYVQHLNEAPKLLLKSFTDNKRPEHQGFHATLHKSSSSFHLQKSSAQLSDSALYYCALSPSNMGYKLTFGTGTSLLVDP
chain 2: EAAVTQSPRNKVAVTGGKVTLSCNQTNNHNNMYWYRQDTGHGLRLIHYSYGAGSTEKGDIPDGYKASRPSQENFSLILELATPSQTSVYFCASGDASEQYFGPGTRLTVL
chain 3: not shown
chain 4: B1 chain 4
chain 5: SIINFEKL

Variants of: B1
Assay: % of reporter cells activated (NFAT-GFP), raw
Design: unit not given here
Settings: with B6
Also: test concentration or dose not given here.

Ratio to parent: each site, then its substitutions
chain 5 I3: Q 1.06 | M 1.13 | H 1.01 | N 0.913 | E 1.03 | D 1.01 | K 0.98 | S 1.15 | R 0.678 | C 1.07 | G 1.01 | F 1.43 | Y 1.23 | L 1.11 | W 1.19 | P 1.11 | V 0.886 | T 1.16 | A 1.17
chain 5 K7: Q 1.09 | S 0.644 | I 0.899 | H 0.926 | V 0.872 | R 0.477 | P 0.758 | E 1.11 | W 0.638 | Y 0.738 | N 0.664 | L 0.785 | T 0.94 | M 0.765 | G 0.913 | F 0.812 | C 1 | D 0.819 | A 0.832
chain 5 N4: L 2.7 | A 1.17 | Q 0.993 | V 0.893 | Y 0.913 | R 1 | K 0.926 | H 0.973 | G 0.752 | M 2.76 | C 1.25 | S 1.03 | W 0.832 | E 0.913 | P 1.13 | F 1.87 | T 1.1 | D 1.29 | I 1.05
chain 5 I2: W 0.926 | F 1.01 | G 0.966 | R 0.765 | H 1.15 | L 1.08 | Q 0.886 | N 1.2 | D 1.07 | K 1.08 | Y 1.07 | S 0.987 | E 0.879 | P 1.16 | M 0.98 | A 1.13 | V 0.987 | T 1.23 | C 1.18
chain 5 L8: K 0.819 | R 0.812 | I 0.758 | M 0.718 | E 0.329 | Y 0.805 | N 0.765 | W 0.604 | H 0.859 | P 0.671 | V 0.403 | D 0.456 | T 0.55 | Q 0.738 | F 0.523 | S 0.53 | G 1.09 | C 0.725 | A 0.53
chain 5 S1: A 1.1 | G 1.01 | H 1.12 | L 1.13 | Y 1 | Q 0.926 | D 1.13 | F 1.18 | I 0.919 | T 1.07 | W 1.01 | P 0.953 | N 0.872 | M 0.973 | V 0.826 | K 0.993 | R 0.611 | E 1.12 | C 1.05
chain 5 E6: C 0.879 | T 0.859 | S 0.852 | H 0.919 | L 0.866 | Y 0.685 | V 0.51 | A 1.21 | N 1.07 | Q 0.872 | K 0.872 | M 0.946 | W 0.758 | R 0.711 | I 0.55 | P 1 | F 0.792 | D 0.792 | G 0.664
chain 5 F5: L 1.08 | T 0.993 | V 1.09 | N 0.966 | E 1.74 | P 0.973 | A 1.15 | Y 1.28 | G 1.17 | K 1.28 | H 1.28 | Q 1.07 | M 1 | S 0.98 | W 1.15 | D 1.25 | I 1.09 | R 0.765 | C 1.47

Variants of: B2
Assay: % of reporter cells activated (NFAT-GFP), raw
Settings: with F5; scale: % of reporter cells activated

Ratio to parent, by site and new letter:
chain 5 S1: A 0.521 | C 0.296 | R 0.225 | V 0.307 | G 0.629 | H 0.337 | K 0.326 | N 0.161 | W 0.292 | P 0.315 | Y 0.337 | L 0.375 | T 0.573
chain 5 F5: C 1.48 | N 0.655 | Y 0.502 | M 1.51 | W 1.55 | H 0.659 | R 0.318 | L 0.79 | G 0.296 | A 0.921 | P 4.99
chain 5 I2: E 0.558 | H 0.378 | W 1.57 | M 1.58 | L 3.22 | F 0.577 | S 0.483 | V 1.23 | C 0.779
chain 5 N4: A 0.262 | K 0.184 | D 0.21 | W 0.438 | R 0.191 | Q 0.15 | L 0.401 | C 0.232 | E 0.21 | I 0.315 | P 0.36 | T 0.337
chain 5 I3: M 0.255 | W 0.243 | G 0.292 | P 0.427 | N 0.251 | Y 0.3 | D 0.255 | H 0.311 | R 0.161 | Q 0.464
chain 5 E6: K 0.337 | Y 0.296 | R 0.453 | C 0.303 | G 0.281 | P 0.21 | T 0.36 | S 0.303 | W 0.318 | M 0.221 | A 0.318 | L 0.341 | V 0.232
chain 5 K7: D 0.341 | G 0.318 | A 0.903 | I 2.55 | L 3.69 | R 2.89 | T 1.72 | V 2.14 | N 0.386 | P 0.322 | S 0.775
chain 5 L8: G 0.352 | D 1.91 | Y 0.742 | H 1.55 | S 1.39 | E 0.285 | F 0.247 | C 2.82 | M 0.427 | N 0.21 | R 0.345 | K 0.633 | T 0.453 | Q 0.288 | W 0.292
